In patent publication US20180328920A1 (Hoffmann-La Roche, published 2018):
Blank lines part the entries; values can stand above or below the binder they belong to.

Legend:
[1] = target: T1, Tim3-CLIP (human Tim3 extracellular domain - CLIP tag - Tim3 transmembrane region - Flag tag, on HEK293 cells) (human, CLIP tag labelled with CLIP-Red (FRET acceptor dye)); experiment: cell-based TR-FRET (Tag-lite) on HEK293 cells co-expressing PD1-SNAP and Tim3-CLIP; signal needs simultaneous binding of both
T1 construct: also called Tim3 receptor on PD1+Tim3+ HEK cells

[2] = target: T2, PD1-SNAP (human PD1 extracellular domain - SNAP tag - PD1 transmembrane region - Flag tag, on HEK293 cells) (human, SNAP tag labelled with SNAP-Lumi4-Tb (FRET donor dye)); experiment: as above
T2 construct: also called PD1 receptor on PD1+Tim3+ HEK cells

[3] = target: T1, Tim3-CLIP (human Tim3 extracellular …); experiment: cell-based TR-FRET on PD1-SNAP/Tim3-CLIP HEK293 cells (FIG. 5)
Method: Transfected cells were sedimented and resuspended at a density of 1×10⁶ cells/ml in tag-Lite® buffer (Cisbio). Thereafter, cells were stained with 100 nM SNAP-Lumi4-Tb (Cisbio) and 100 nM CLIP-Red (Cisbio) for one hour at 37° C. in tag-Lite® buffer (Cisbio). After washing and re-suspending in PBS buffer comprising 2% FCS (v/v), about 50.000 cells (in 50 μl volume) were seeded into 96-well flat-bottom white plates (Costar) bevor either control antibody (e.g. a bivalent, monospecific antibody or an isotype control) or bispecific antibody was added to the cells at a final concentration of 0.001-10 nM. After an incubation for one hour at 4° C. or room temperature, time-resolved fluorescence was measured as ratio of the emission signal at 665 nm and 620 nm (665/620 nm ratio) with a BMG Pherastar reader or Tecan Infinite M1000 Pro using standard settings provided by the respective vendor.

[4] = target: T1, Tim3-CLIP (human Tim3 extracellular …); experiment: cell-based TR-FRET on PD1-SNAP/Tim3-CLIP HEK293 cells, antibody at 0.01-40 nM, 1 h at 4 C (FIG. 6, diamond)
Method: (§1) Transfected cells were sedimented and resuspended at a density of 1×10⁶ cells/ml in tag-Lite® buffer (Cisbio). Thereafter, cells were stained with 100 nM SNAP-Lumi4-Tb (Cisbio) and 100 nM CLIP-Red (Cisbio) for one hour at 37° C. in tag-Lite® buffer (Cisbio). […] After an incubation for one hour at 4° C. or room temperature, time-resolved fluorescence was measured as ratio of the emission signal at 665 nm and 620 nm (665/620 nm ratio) with a BMG Pherastar reader or Tecan Infinite M1000 Pro using standard settings provided by the respective vendor.
(§2) To show the specificity of the FRET signal induced by simultaneous binding of the bispecific antibody, monoclonal IgGs of only one specificity were added for competition. Therefore, PD1 and Tim3 expressing HEK cells as described before were labelled with 100 nM SNAP-Lumi4-Tb and 100 nM CLIP-Red. […] A FRET signal was detected. To underline the specificity of FRET signal after bispecific antibody treatment, a monospecific, bivalent anti-PD1 monoclonal antibody was tested alone (FIG. 6, triangle). No FRET signal was detected. If the monospecific, bivalent anti-PD1 monoclonal antibody and the bispecific anti-PD1/Tim3 antibody were present (80 nM monospecific antibody concentration) no FRET signal was detected (FIG. 6, squares). Likewise no FRET signal was obtained if a bivalent, monospecific anti-Tim3 antibody was added (see FIG. 7).

[5] = target: T2, PD1-SNAP (human PD1 extracellular …); experiment: as above
Method: as §1, §2

- binding result [1]: binds
B1: PD1-Tim3-0476 (bispecific antibody)
heavy 1: not shown
heavy 2: EVQLVESGGGLVQPGGSLRLSCAASGFNIKTTYMHWVRQAPGKGLEWVGRIDPADDNTKYAPKFQGKATISADTSKNTAYLQMNSLRAEDTAVYYCVRDFGYVAWFAYWGQGTLVTVSSASTKGPSVFPLAPSSKSTSGGTAALGCLVEDYFPEPVTVSWNSGALTSGVHTFPAVLQSSGLYSLSSVVTVPSSSLGTQTYICNVNHKPSNTKVDEKVEPKSCDKTHTCPPCPAPEAAGGPSVFLFPPKPKDTLMISRTPEVTCVVVDVSHEDPEVKFNWYVDGVEVHNAKTKPREEQYNSTYRVVSVLTVLHQDWLNGKEYKCKVSNKALGAPIEKTISKAKGQPREPQVCTLPPSRDELTKNQVSLSCAVKGFYPSDIAVEWESNGQPENNYKTTPPVLDSDGSFFLVSKLTVDKSRWQQGNVFSCSVMHEALHNHYTQKSLSLSPGK
light 1: EVQLLESGGGLVQPGGSLRLSCAASGFSFSSYTMSWVRQAPGKGLEWVATISGGGRDIYYPDSVKGRFTISRDNSKNTLYLQMNSLRAEDTAVYYCVLLTGRVYFALDSWGQGTLVTVSSASVAAPSVFIFPPSDEQLKSGTASVVCLLNNFYPREAKVQWKVDNALQSGNSQESVTEQDSKDSTYSLSSTLTLSKADYEKHKVYACEVTHQGLSSPVTKSFNRGEC
light 2: DIVMTQSPLSLPVTPGEPASISCRASQSVDNYVAWYLQKPGQSPQLLIYYASNRYIGVPDRFSGSGSGTDFTLKISRVEAEDVGVYYCQQHYSSPYTFGQGTKVEIKRTVAAPSVFIFPPSDRKLKSGTASVVCLLNNFYPREAKVQWKVDNALQSGNSQESVTEQDSKDSTYSLSSTLTLSKADYEKHKVYACEVTHQGLSSPVTKSFNRGEC

- binding result [1]: binds
B2: PD1-Tim3-0477 (bispecific antibody)
heavy 1: not shown
heavy 2: QITLKESGPTLVKPTQTLTLTCTFSGFSLSTSGMSVGWIRQPPGKGLEWLAHIWLNDDVFFNPALKSRLTITKDTSKNQVVLTMTNMDPVDTATYYCVRANGYLYALDYWGQGTLVTVSSASTKGPSVFPLAPSSKSTSGGTAALGCLVEDYFPEPVTVSWNSGALTSGVHTFPAVLQSSGLYSLSSVVTVPSSSLGTQTYICNVNHKPSNTKVDEKVEPKSCDKTHTCPPCPAPEAAGGPSVFLFPPKPKDTLMISRTPEVTCVVVDVSHEDPEVKFNWYVDGVEVHNAKTKPREEQYNSTYRVVSVLTVLHQDWLNGKEYKCKVSNKALGAPIEKTISKAKGQPREPQVCTLPPSRDELTKNQVSLSCAVKGFYPSDIAVEWESNGQPENNYKTTPPVLDSDGSFFLVSKLTVDKSRWQQGNVFSCSVMHEALHNHYTQKSLSLSPGK
light 1: B1 light 1
light 2: DIQLTQSPSFLSASVGDRVTITCSASSSVSYTQWYQQKPGKAPKLWIYDAFKLAPGVPSRFSGSGSGTEFTLTISSLQPEDFATYFCHQWSSYPWTFGQGTKLEIKRTVAAPSVFIFPPSDRKLKSGTASVVCLLNNFYPREAKVQWKVDNALQSGNSQESVTEQDSKDSTYSLSSTLTLSKADYEKHKVYACEVTHQGLSSPVTKSFNRGEC

- binding result [2]: binds
- binding result [3]: binds
B3: PD1-Tim3-0389 (bispecific antibody, human IgG1, kappa, L234A L235A)
heavy 1: not shown
heavy 2: EVQLQQSVAELVRPGASVKLSCTASGFNIKTTYMHWVKQRPEQGLEWIGRIDPADDNTKYAPKFQGKATITADTSSNTAYLQLSSLTSEDAAIYYCVRDFGYVAWFAYWGQGTLVTFSAASTKGPSVFPLAPSSKSTSGGTAALGCLVEDYFPEPVTVSWNSGALTSGVHTFPAVLQSSGLYSLSSVVTVPSSSLGTQTYICNVNHKPSNTKVDEKVEPKSCDKTHTCPPCPAPEAAGGPSVFLFPPKPKDTLMISRTPEVTCVVVDVSHEDPEVKFNWYVDGVEVHNAKTKPREEQYNSTYRVVSVLTVLHQDWLNGKEYKCKVSNKALGAPIEKTISKAKGQPREPQVCTLPPSRDELTKNQVSLSCAVKGFYPSDIAVEWESNGQPENNYKTTPPVLDSDGSFFLVSKLTVDKSRWQQGNVFSCSVMHEALHNRFTQKSLSLSPGK
light 1: EVILVESGGGLVKPGGSLKLSCAASGFSFSSYTMSWVRQTPEKRLDWVATISGGGRDIYYPDSVKGRFTISRDNAKNTLYLEMSSLMSEDTALYYCVLLTGRVYFALDSWGQGTSVTVSSASVAAPSVFIFPPSDEQLKSGTASVVCLLNNFYPREAKVQWKVDNALQSGNSQESVTEQDSKDSTYSLSSTLTLSKADYEKHKVYACEVTHQGLSSPVTKSFNRGEC
light 2: NIVMTPTPKFLPVSSGDRVTMTCRASQSVDNYVAWYQQKPGQSPKLLIYYASNRYIGVPDRFTGSGSGTDFTFTISSVQVEDLAVYFCQQHYSSPYTFGSGTKLEIKRTVAAPSVFIFPPSDRKLKSGTASVVCLLNNFYPREAKVQWKVDNALQSGNSQESVTEQDSKDSTYSLSSTLTLSKADYEKHKVYACEVTHQGLSSPVTKSFNRGEC
notes: also called bispecific anti-PD1/Tim3 antibody

- binding result [1]: binds
- binding result [2]: binds
B4: PD1-Tim3-0359 (bispecific antibody, human IgG1, kappa, L234A L235A)
heavy: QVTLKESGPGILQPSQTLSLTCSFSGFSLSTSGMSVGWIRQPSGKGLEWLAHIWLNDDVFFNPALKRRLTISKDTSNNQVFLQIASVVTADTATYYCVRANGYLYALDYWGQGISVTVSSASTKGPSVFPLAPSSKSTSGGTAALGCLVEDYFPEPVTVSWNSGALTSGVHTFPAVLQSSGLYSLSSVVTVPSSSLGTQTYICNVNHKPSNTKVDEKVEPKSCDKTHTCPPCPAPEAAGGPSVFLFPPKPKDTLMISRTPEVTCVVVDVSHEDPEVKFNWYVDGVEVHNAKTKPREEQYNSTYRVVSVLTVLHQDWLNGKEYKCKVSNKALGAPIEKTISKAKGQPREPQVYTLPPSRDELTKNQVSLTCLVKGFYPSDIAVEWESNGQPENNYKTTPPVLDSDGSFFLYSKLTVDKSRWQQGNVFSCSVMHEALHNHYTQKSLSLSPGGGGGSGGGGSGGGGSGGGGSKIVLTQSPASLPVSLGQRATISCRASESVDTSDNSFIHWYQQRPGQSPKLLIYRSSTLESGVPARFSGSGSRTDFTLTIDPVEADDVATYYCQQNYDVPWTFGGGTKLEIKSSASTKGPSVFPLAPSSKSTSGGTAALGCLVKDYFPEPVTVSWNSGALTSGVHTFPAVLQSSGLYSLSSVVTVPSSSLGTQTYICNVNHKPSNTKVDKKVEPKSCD
light 1: QIVLTQSPAIMSASPGQKVTITCSASSSVNYTQWYQQKLGSSPKLWIYDAFKLAPGVPARFSGSGTGTSYSLTISSMEAEDAASYFCHQWSSYPWTFGGGTKLEIKRTVAAPSVFIFPPSDRKLKSGTASVVCLLNNFYPREAKVQWKVDNALQSGNSQESVTEQDSKDSTYSLSSTLTLSKADYEKHKVYACEVTHQGLSSPVTKSFNRGEC
light 2: B3 light 1
notes: also called 2+2 format bispecific antibody PD1-Tim3-0359

- binding result [4]: binds
- binding result [5]: binds
B5: PD1-Tim3-0168 (bispecific antibody, human IgG1, kappa, L234A L235A)
heavy 1: not shown
heavy 2: QVTLKESGPGILQPSQTLSLTCSFSGFSLSTSGMSVGWIRQPSGKGLEWLAHIWLNDDVFFNPALKRRLTISKDTSNNQVFLQIASVVTADTATYYCVRANGYLYALDYWGQGISVTVSSASTKGPSVFPLAPSSKSTSGGTAALGCLVEDYFPEPVTVSWNSGALTSGVHTFPAVLQSSGLYSLSSVVTVPSSSLGTQTYICNVNHKPSNTKVDEKVEPKSCDKTHTCPPCPAPEAAGGPSVFLFPPKPKDTLMISRTPEVTCVVVDVSHEDPEVKFNWYVDGVEVHNAKTKPREEQYNSTYRVVSVLTVLHQDWLNGKEYKCKVSNKALGAPIEKTISKAKGQPREPQVCTLPPSRDELTKNQVSLSCAVKGFYPSDIAVEWESNGQPENNYKTTPPVLDSDGSFFLVSKLTVDKSRWQQGNVFSCSVMHEALHNRFTQKSLSLSPGK
light 1: B3 light 1
light 2: B4 light 1
